# B1: P3 scFv-Fc (Fc fusion)
# chain: QVQLQQSGPGLVKPSQTLSLTCAISGDSVSSNNFGWNWIRQSPSRGLEWLGRTYYRSKWYNDYAVSVRSRITINPDTSKNQFSLQLNSVTPEDTAVYYCARQGSTYFDYWGQGTLVTVSSEFGGGGSGGGGSGGGGSRDIVMTQSPSSLSASVGDRVTITCRASQTISSSLAWFQQRPGEAPNLLIYSASSLQSGVPSRFSGSGSGTDFTLTISSLQPEDFATYSCQQTYSAPPTFGGGTKLEIK
# notes: these probably describe the HEK construct without the 2 extra cysteines; also called scFv-Fc P3; Human P3 scFv-Fc; not shown: human IgG1 Fc domain with 2 extra cysteine residues at the C-terminal end (baculovirus/Sf9 construct)
# Target: T1, Galectin-3 protein (human, UniProt P17931 2-250)
# T1 construct: Endogenous antigen in human atheroma tissue sections; also called Gal3
# Assay: double immunofluorescence staining of human endarteriectomy sections (colocalisation with anti-galectin-3 antibody)
# Description: FIG. 3: Immunofluorescent staining of human endarteriectomy sections and aortas of ApoE^{-/-} and WT mouse with P3 scFv-Fc or commercial control antibodies. (A) Double immunofluorescence staining of human endarteriectomy sections. […] Size bars: 50 μm. (B) Fluorescent macroscopy of P3 scFv-Fc after ex vivo injection in ApoE^{-/-} mouse and WT mouse. A human IgG was used as a negative control antibody.
# Human tissue specimens were provided by Pr DUCASSE Eric, vascular surgeon at CHU Pellegrin. For immunofluorescence stainings, human sections were deparaffinised and rehydrated. After a retrieval step (pH9), slides were blocked with (1) PBS/1% BSA/0.2% Triton X10 followed by (2) 5% goat serum and (3) addition of goat anti human IgG H+L and Fcγ specific diluted at 100 μg/mL. Primary scFv-Fc produced in baculovirus or commercially available antibodies were added overnight at 4° C. Slides were incubated with scFv-Fc diluted at 50 μg/mL in PBS/1% BSA and, as controls, secondary antibody alone or commercial antibodies according to the manufacturer's instructions. […] After 1h incubation, slides were washed in PBS 3 times and mounted with Vectashield (VWR, France).
# T1 sequence (P17931 2-250 limits assumed): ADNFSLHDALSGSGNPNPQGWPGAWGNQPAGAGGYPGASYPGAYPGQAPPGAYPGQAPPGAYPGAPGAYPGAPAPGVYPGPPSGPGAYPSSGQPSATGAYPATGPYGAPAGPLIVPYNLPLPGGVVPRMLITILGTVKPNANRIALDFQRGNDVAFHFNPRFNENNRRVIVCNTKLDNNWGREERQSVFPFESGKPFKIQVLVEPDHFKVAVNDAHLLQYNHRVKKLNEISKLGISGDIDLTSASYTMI
binder,measurement,value
B1,binding result,binds
